Laboratory results as given in patent US20090004111.

Target: NS5A domain I-Δh (HCV NS5A N-terminal domain) (Hepatitis C virus) (UniProt Q9WMX2)
Experiment: EMSA
Conditions: approximate Kd, non-specific RNA sequence; text says NS5A, construct taken as the purified domain I-Δh

Chain of UniProt Q9WMX2 (Q9WMX2 1997-2188, tags or fused parts left off): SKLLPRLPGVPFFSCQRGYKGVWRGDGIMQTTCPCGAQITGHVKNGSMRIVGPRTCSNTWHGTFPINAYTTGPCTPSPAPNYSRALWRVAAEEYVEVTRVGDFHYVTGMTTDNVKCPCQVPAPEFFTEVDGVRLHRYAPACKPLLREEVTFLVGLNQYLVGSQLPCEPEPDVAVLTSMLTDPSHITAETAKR

non-specific ssRNA (plasmid polylinker transcript)
Kd: 10 nM
